Reference: patent US20230190924A1, “ANTIGEN OF ALLERGY AND EPITOPE THEREOF” (HOYU CO., LTD., priority 2017, published 2023)
“Also recorded” adds a separate entry of the source.

What was measured:
IgE antibodies in serum = experiment: ELISA of Fmoc-synthesised peptides with patient serum; assay type: binding, human; conditions: serum of cases having food allergies to chicken egg and soybean in combination
Procedure: The peptides of the aforementioned SEQ ID NOs were prepared by the Fmoc method and studied for their binding activity against IgE antibodies in serum by ELISA. On the basis of RXRXXKXX (SEQ ID NO: 329), the peptides of chicken egg RGREDKMK and soybean RFREDKEE were prepared, and their binding activity against IgE antibodies were confirmed by ELISA using the serum of cases having food allergies to chicken egg and soybean in combination.

[1] = tested on: IgE antibody in the serum of an egg allergic patient; experiment: Immunoblotting of two-dimensional electrophoresis of chicken egg (raw egg) yolk proteins with patient serum; assay type: binding, human; conditions: for specific reaction/binding of serum IgE with spot in immunoblot: serum of egg-allergic patient 1 (food-dependent exercise-induced anaphylaxis), versus non-egg-allergic serum
Procedure: Identification of antigens by immunoblotting was carried out by taking all the steps up to the step of “Second-dimensional SDS-PAGE” as described above in Example 1, followed by the steps of “Transfer to membrane”, “Immunoblotting” and “Analysis” as described below.
Transfer to membrane was done using the following transfer system and transfer buffer. • Transfer system: XCell SureLock Mini-Cell and XCell II Blot Module (produced by Life Technologies) • Transfer buffer: NuPAGE Transfer Buffer (X20) (produced by Life Technologies), used in a form diluted 20-fold with milliQ water.
To be specific, proteins in the two-dimensional electrophoresis gels were transferred to a membrane (PVDF membrane) according to the following procedure.
(1) The PVDF membrane was immersed in 100% methanol followed by milliQ water, and then moved into the transfer buffer to hydrophilize the PVDF membrane.
(2) After sponge, filter paper, gels treated by second-dimensional SDS-PAGE, the hydrophilized PVDF membrane, filter paper, and sponge were put in place in this order, the transfer system was energized at a constant voltage of 30 V for one hour.
Immunoblotting of the membrane was carried out using, as a primary antibody, a serum sample from patient (patient 1) with an egg allergy or a serum sample from a non-egg-allergic subject. This egg-allergic patient was a patient diagnosed with food-dependent exercise-induced anaphylaxis (FDEIA) caused by chicken eggs.
Immunoblotting of the membrane was carried out according to the following procedure. • (1) The transferred membrane was shaken in a 5% skim milk/PBST solution (a PBS buffer containing 0.1% Tween 20 nonionic surfactant) at room temperature for one hour. • (2) The membrane was left to stand in a solution of 5% primary antibody serum in 5% skim milk/PBST at room temperature for one hour. • (3) The membrane was washed with a PBST solution (5 min.×3 times). • (4) The membrane was left to stand in a 1:5000 dilution of the secondary antibody, anti-human IgE-HRP (horseradish peroxidase), with a 5% skim milk/PBST solution at room temperature for one hour. • (5) The membrane was washed with a PBST solution (5 min.×3 times). • (6) The membrane was left to stand in Pierce Western Blotting Substrate Plus (produced by Thermo) for 5 minutes. […]
The immunoblots obtained with the serum from the egg-allergic patient were compared with those obtained with the control serum from the non-egg-allergic subject. By immunoblotting of the proteins contained in the raw yolk using the serum from the egg-allergic patient (FIG. 2), three spots were detected, which are different from the spots detected when the serum of the non-egg-allergic subject was used and different from those of the known chicken egg allergen proteins.
Identification of antigens by immunoblotting was carried out using the sera of three other egg-allergic patients (patient 2, patient 3 and patient 4) in the same manner as in Example 2. By immunoblotting of the proteins contained in the raw yolk using the serum from the egg-allergic patients (FIG. 4 for patient 2, FIG. 5 for patient 3, and FIG. 6 for patient 4), spots were detected, which are different from the spots detected when the serum of the non-egg-allergic subject was used and different from those of the known chicken egg allergen proteins. To be specific, spots 4 to 8 for patient 2, spots 9 and 10 for patient 3, and spot 11 for patient 4 were detected.

[2] = serum of egg-allergic patient 3

Question: How did the “binding activity against IgE antibodies by ELISA” value (IgE antibodies in serum) turn out when RFREDKEE was run?
Answer: Its value is “patient-specific binding activity was able to be confirmed”.

Question: With RGREDKMK as the molecule, how does the “binding activity against IgE antibodies by ELISA” value (IgE antibodies in serum) read?
Answer: The value was “patient-specific binding activity was able to be confirmed”.

B1: Spot 3: Central sequence of vitellogenin-1, or C-terminal portion (SEQ ID NO: 18) of lipovitellin-1 (protein)
chain: DKPFASGYLKMFGQELLFGRLDKDTLQNVLQVWYGPDEKIPSIRRLISSLQTGIGRQWTKALLLSEIRCIVPTCVGFPMETSFYYSSVTKVAGNVQAQITPSPRSDFRLTELLNSNVRLRSKMSLSMAKHMTFVIGINTNMIQAGLEAHTKVNAHVPVNVVATIQMKEKSIKAEIPPCKEETNLIIVSSKTFAVTRNIEDLAASKMTPVLLPEAVPDIMKMSFDSDSASGETDNIRDRQSVEDVSSGNSFSFGHPSSGKEPFIQSMCSNASTFGVQVCIEKKSVHAAFIRNVPLYNAIGEHALRMSFKPVYSDVPIEKIQVTIQAGDQAPTK
Question: Which “specific reaction/binding of serum IgE with spot in immunoblot” value [1] does the source give for B1 here?
Answer: Its value is “specifically reacted”.

B2: vitellogenin-3 (protein)
chain: SIIENLKARCSVSQNMITTFNGVEFNYSMPANCYHILAQDCSPELKFLVMMKRLGESADLTAISVRLASHEVDMYVSNGLIQLKINGVQTPTDVPYTSKSGLLISSEKEGLSLKAPEYGVEKLYYDRRKLEIRVAFWMVGKTCGICGKYDAEKKREYQMPSGYLAKDAVSFAQSWVISEDTCTGACKLQRKFVKIEKPVAFNKKASKCFSIEPVLRCAEGCSATRTVPVSVGFHCVPSDSTLELEEEQVRLDQKSEDLVSRVDAHTACSCAQQLCSA
Question: Which “specific reaction/binding of serum IgE with spot in immunoblot” value [1] does the source give for B2 here?
Answer: Its value is “specifically reacted”.

B3: Apolipoprotein B precursor [Spot 9] (protein, listed as Gallus gallus)
chain: MGPVRLLLLLLLLSSGVLTQEGTPENGNPGCSKDAARFKSLRKYVYLYEAETSSGITGTADSRSGSKITCKVELEVPQLCQFILRTMHCSLRETFGVDSERRAMLRKSKNSDDFANAMSKHELRFSTQDGTKVKLYPEKDEPLNVLNLKRGIISALLAPTETEENIKTISMDTVYGKCDSEVEFKSRRGSVAEDISINRNLKACDNFSPIRDYVSPVAIVKGLNIPLSTLLSSTQSCHYSIDAKKKHIRDVVCSEKHLFLPSSYKNQYGMMTEVNQTLKLEDNQRMNNRNPDGDELEEKGLALESTDAK
Question: Which “specific reaction of serum IgE with spot in immunoblot” value (shortened to “specific reaction of serum IgE”) [1, 2] does the source give for B3 here?
Answer: The value was “specifically reacted; also recorded: detected”.

B4: Apolipoprotein B precursor [Spot 10] (protein, listed as Gallus gallus)
chain: LDGSTSLTRKRGLKLATALSLNNNKFLGGSHDNSISLTKKNLEASMITNAKINTPVFKMNFSQELSGNTKSKPTISSGLKVTYDFTTPKHGISAKGGVAHKLALETLTSYLSVETSTKGNIDGAIYTGNSFSGALDHEANTYLHANGVRSSLKLEANSKVDGLWNSEMKEILAVEASTSRVYAVWEHNGKNFARYTPLFTTTGSQKCKATFELAPWTVSADLQIQVTQPNSFLDTASVNQVVLMKVSPTDQKVGWKGEGQIQSLSLRHDMQLSNEKSNAKFDISGSLEGYMDFLKRINCAISKKSLWDILKLDVTTVADRKHYLNASASFIYRKSDDGYFFPMPVIR
Question: Which “specific reaction of serum IgE” value [1, 2] does the source give for B4 here?
Answer: The value was “specifically reacted; also recorded: detected”.

B5: Vitellogenin-2 precursor (protein, listed as Gallus gallus)
chain: TPVLAAFLHGISNNKKTGGLQLVVYADTDSVRPRVQVFVTNLTDSSKWKLCADASVRNAHKAVAYVKWGWDCRDYKVSTELVTGRFAGHPAAQVKLEWPKVPSNVRSVVEWFYEFVPGAAFMLGFSERMDKNPSRQARMVVALTSPRTCDVVVKLPDIILYQKAVRLPLSLPVGPRIPASELQPPIWNVFAEAPSAVLENLKARCSVSYNKIKTFNEVKFNYSMPANCYHILVQDCSSELKFLVMMK
Question: How did the “specific reaction of serum IgE” value ([1]; serum of egg-allergic patient 4) turn out when B5 was run?
Answer: The value was “specifically reacted; also recorded: detected”.
